According to patent publication US8642729B2, “Opiorphin peptide derivatives as potent inhibitors of enkephalin-degrading ectopeptidases” (Institut Pasteur, priority 2008, dated 2014):
Non-standard residues stand in square brackets, D forms with d. No end group written: not given here. 12Ado = NCCCCCCCCCCCC(=O)O; Ahx = NCCCCCC(=O)O

Tests used:
human NEP = molecular target: T1, human NEP (Homo sapiens, UniProt P08473); assay: Screening of Opiorphin peptide-derivatives on hNEP (endopeptidase and carboxydipeptidase activities); assay type: biochemical; details: for inhibitory preference / dual inhibition, human NEP versus human AP-N (in words): hNEP endopeptidase and carboxydipeptidase activities versus hAP-N; for inhibitory potency towards hNEP as compared to Opiorphin-QRFSR native peptide (in words): relative to native peptide; for inhibitory potency towards human NEP (in words): screening, 50 μM final concentration
T1 construct: devoid of their respective N-terminal cytosol and transmembrane segment; purchased R&D Systems
Method: (§1) According to conditions of initial velocity measurement: the time, pH and temperature of incubation as well as enzyme and substrate concentrations were defined for each assay. Hydrolysis of substrates was measured by real-time monitoring their metabolism rate by the two peptidases in the presence and absence of tested inhibitory compound (concentrations ranging from 1 to 50 μM). These were added to the preincubation medium. The background rate of substrate autolysis representing the fluorescent signal obtained in the absence of enzyme was subtracted to calculate the initial velocities in RFU (Relative Fluorescent Unit)/min.
([…] successive measures) by using a fluorimeter microplate reader (monochromator Infinite 200-Tecan) at 320 nm and 420 nm excitation and emission wavelengths, respectively.
Using black half-area 96 well microplate, the standard reaction consisted of enzyme (2.5 ng) in 100 mM Tris-HCl pH 6.5 containing 50 mM NaCl (100 μl final volume). The substrate (4 μM final concentration) was added after preincubation for 10 min and the kinetics of appearance of the fluorescent signal (RFU) was directly analyzed for 40 min at 28° C. (2.3 min-interval successive measures) by using the fluorimeter reader at 320 nm excitation and 420 nm emission wavelengths.
In addition, the intramolecularly quenched fluorogenic peptide, Mca-BK2 (10 μM), was submitted to hydrolysis by 5 ng rhNEP under the same experimental conditions as those described behind.
(§2) Compounds were tested in triplicate at 50 μM final concentration.

recombinant human AP-N = molecular target: T2, recombinant human AP-N (Homo sapiens, UniProt P15144); assay: AP-N-ectopeptidase activity, Ala-Mca substrate; assay type: biochemical; details: for inhibitory potency towards hAP-N as compared to Opiorphin-QRFSR native peptide (in words): relative to native peptide
T2 construct: devoid of their respective N-terminal cytosol and transmembrane segment; purchased R&D Systems
Method: Formal kinetic analysis was performed for each assay using real-time fluorescence monitoring of specific substrate hydrolysis.
Recombinant human NEP and recombinant human AP-N (devoid of their respective N-terminal cytosol and transmembrane segment) that were purchased from R&D Systems, were used as pure source of peptidase.
FRET is the distance-dependant transfer of energy from a donor fluorophore (Abz=ortho-aminobenzoyl or Mca=7-methoxycoumarin-4-yl-acetyl) to an acceptor fluorophore (DnpOH=2,4-dinitrophenyl or EDDnp=2,4-dinitrophenyl ethylenediamine). • L-alanine-Mca, Ala-Mca, a fluorogenic substrate for measuring aminopeptidase activity was purchased from Sigma.
as §1
Measurement of AP-N-Ectopeptidase Activity Using Ala-Mca Substrate.
Using black half-area 96 well microplate the standard reaction consisted of enzyme (4 ng) in 100 mM Tris-HCl pH 7.0 (100 μl final volume).
as §2

[1] = molecular target: T3, membrane-bound human NEP expressed by LNCaP epithelial cells (Homo sapiens, UniProt P08473); assay: Substance P cleavage by membrane-bound hNEP (human cell membranes); assay type: biochemical; details: fold increase, same test
T3 construct: endogenous in cells; host or cells: LNCaP epithelial cells (membranes)

[2] = molecular target: T4, Recombinant human AP-N (aminopeptidase N, EC 3.4.11.2), devoid of its N-terminal cytosol and transmembrane … (human, UniProt P15144 33-967); assay: cell-based or functional assay
[3] = molecular target: Recombinant human NEP (neutral endopeptidase, EC 3.4.24.11), devoid of its N-terminal cytosol and … (human, UniProt P08473 52-750); assay: cell-based or functional assay
[4] = molecular target: T4, Recombinant human AP-N (aminopeptidase …); assay: cell-based or functional assay; remark: listed apart in the source

T4 sequence (P15144 33-967): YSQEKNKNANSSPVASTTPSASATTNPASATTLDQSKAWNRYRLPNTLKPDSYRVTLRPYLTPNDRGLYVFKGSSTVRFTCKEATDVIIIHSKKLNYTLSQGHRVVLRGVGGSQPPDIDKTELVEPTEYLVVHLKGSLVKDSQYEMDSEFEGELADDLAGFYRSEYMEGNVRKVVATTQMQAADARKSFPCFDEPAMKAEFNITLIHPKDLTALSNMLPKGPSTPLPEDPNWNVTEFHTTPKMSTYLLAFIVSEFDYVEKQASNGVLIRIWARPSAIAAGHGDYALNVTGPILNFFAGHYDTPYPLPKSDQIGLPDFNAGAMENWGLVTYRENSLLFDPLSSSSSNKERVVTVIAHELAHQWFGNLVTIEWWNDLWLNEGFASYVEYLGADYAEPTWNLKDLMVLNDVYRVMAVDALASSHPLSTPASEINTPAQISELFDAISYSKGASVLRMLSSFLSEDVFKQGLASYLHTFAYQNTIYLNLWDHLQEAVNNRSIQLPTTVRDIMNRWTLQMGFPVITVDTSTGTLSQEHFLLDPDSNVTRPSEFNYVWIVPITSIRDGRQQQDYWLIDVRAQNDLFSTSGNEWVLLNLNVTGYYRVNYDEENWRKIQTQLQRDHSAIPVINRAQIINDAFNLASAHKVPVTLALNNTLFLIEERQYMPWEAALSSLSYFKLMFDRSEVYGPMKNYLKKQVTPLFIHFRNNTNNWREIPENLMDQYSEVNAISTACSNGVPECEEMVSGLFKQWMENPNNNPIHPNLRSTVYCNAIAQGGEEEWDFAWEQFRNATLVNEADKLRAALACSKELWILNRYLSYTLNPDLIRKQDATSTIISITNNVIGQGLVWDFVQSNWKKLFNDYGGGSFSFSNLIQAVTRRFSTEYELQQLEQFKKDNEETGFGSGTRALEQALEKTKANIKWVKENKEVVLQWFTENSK
T2 sequence (P15144 33-967 limits assumed): as the sequence (P15144 33-967) above
T1 sequence (P08473 52-750 limits assumed): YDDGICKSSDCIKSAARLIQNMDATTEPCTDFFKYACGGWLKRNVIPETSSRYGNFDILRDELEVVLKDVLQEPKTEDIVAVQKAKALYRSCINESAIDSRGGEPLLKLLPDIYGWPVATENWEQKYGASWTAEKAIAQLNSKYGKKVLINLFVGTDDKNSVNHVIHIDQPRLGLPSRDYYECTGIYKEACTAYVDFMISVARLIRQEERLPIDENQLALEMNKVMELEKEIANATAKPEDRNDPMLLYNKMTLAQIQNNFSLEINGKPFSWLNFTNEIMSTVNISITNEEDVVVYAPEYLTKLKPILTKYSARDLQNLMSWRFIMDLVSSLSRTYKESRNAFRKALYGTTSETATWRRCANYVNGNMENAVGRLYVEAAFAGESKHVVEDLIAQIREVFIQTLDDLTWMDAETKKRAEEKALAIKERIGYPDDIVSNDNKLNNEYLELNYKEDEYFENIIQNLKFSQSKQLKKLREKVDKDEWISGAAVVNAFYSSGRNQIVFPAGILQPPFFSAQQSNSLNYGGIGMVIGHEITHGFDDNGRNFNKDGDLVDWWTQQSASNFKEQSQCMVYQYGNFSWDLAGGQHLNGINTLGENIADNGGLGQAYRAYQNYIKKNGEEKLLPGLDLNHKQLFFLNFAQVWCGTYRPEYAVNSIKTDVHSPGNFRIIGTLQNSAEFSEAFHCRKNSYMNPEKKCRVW
T3 sequence (P08473 whole entry): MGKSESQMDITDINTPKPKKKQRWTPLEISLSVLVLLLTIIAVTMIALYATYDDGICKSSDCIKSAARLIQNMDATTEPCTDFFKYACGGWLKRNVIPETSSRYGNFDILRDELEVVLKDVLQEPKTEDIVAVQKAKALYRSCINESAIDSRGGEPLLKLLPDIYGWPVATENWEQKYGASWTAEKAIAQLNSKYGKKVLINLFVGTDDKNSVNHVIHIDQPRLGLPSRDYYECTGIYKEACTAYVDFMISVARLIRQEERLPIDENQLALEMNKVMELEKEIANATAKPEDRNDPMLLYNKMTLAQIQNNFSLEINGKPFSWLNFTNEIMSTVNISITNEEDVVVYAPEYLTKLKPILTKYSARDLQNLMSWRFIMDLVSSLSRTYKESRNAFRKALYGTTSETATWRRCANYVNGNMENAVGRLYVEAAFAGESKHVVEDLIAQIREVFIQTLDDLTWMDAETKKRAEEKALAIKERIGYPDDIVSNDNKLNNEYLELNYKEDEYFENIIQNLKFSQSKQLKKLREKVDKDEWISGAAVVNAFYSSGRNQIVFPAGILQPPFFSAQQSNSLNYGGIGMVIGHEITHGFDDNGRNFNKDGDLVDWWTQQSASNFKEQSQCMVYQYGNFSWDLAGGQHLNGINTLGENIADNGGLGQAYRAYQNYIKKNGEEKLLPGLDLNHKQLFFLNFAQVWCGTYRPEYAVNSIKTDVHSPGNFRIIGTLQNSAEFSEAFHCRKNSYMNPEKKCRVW
Recombinant human NEP (neutral endopeptidase, EC 3.4.24.11), devoid of its N-terminal cytosol and …, sequence (P08473 52-750): as the sequence (P08473 52-750 limits assumed) above

## N=C(N)NCCC[C@H](NC(=O)[C@H](CO)NC(=O)[C@H](Cc1ccccc1)NC(=O)[C@H](CCCNC(=N)N)NC(=O)[C@H](CCC(N)=O)NC(=O)[C@@H](N)CSSC[C@H](N)C(=O)N[C@@H](CCC(N)=O)C(=O)N[C@@H](CCCNC(=N)N)C(=O)N[C@@H](Cc1ccccc1)C(=O)N[C@@H](CO)C(=O)N[C@@H](CCCNC(=N)N)C(=O)O)C(=O)O [[CQRFSR]2]
Human NEP; fold increase
  increase inhibitory potency towards hNEP-Endo and CarboxyDi-peptidase activities compared to CQRFSR monomer peptide: at least 2 fold

## N=C(N)NCCC[C@H](NC(=O)[C@H](CO)NC(=O)[C@H](Cc1ccccc1)NC(=O)[C@H](CCCNC(=N)N)NC(=O)[C@H](CCC(N)=O)NC(=O)[C@@H](N)CS)C(=O)O [CQRFSR]
Human NEP; fold increase
  reinforced inhibitory potency towards hNEP compared to QRFSR native peptide: 5 fold
Human NEP
  inhibitory preference / dual inhibition, human NEP versus human AP-N (in words): potent dual inhibitors

## QRFPR
Human NEP
  inhibitory preference / dual inhibition, human NEP versus human AP-N (in words): inhibitory preference for human AP-N
  inhibitory potency towards hNEP as compared to Opiorphin-QRFSR native peptide (in words): weak inhibitory potency
  inhibitory potency towards human NEP (in words): weak inhibitory potency
Recombinant human AP-N
  inhibitory potency towards hAP-N as compared to Opiorphin-QRFSR native peptide (in words): equivalent inhibitory potency

## QKFSR
Human NEP
  inhibitory potency towards hNEP as compared to Opiorphin-QRFSR native peptide (in words): light reduction in inhibitory potency

## CCCCCCCC(=O)OC[C@H](NC(=O)[C@H](Cc1ccccc1)NC(=O)[C@H](CCCNC(=N)N)NC(=O)[C@H](CCC(N)=O)NC(=O)CCCCCCNC(=O)[C@@H](N)CS)C(=O)N[C@@H](CCCNC(=N)N)C(=O)O [C-[PE6]-QRFS[O-C8]R, C—(—HN—(CH2)6—CO—)-QRF—S(O-octanoyl)-R]
[1]
  increase inhibitory potency compared to Opiorphin native peptide, Substance P test: at least 5 fold

## QHNPR
Human NEP
  inhibitory preference / dual inhibition, human NEP versus human AP-N (in words): inhibitory preference for human AP-N
  inhibitory potency towards hNEP as compared to Opiorphin-QRFSR native peptide (in words): weak inhibitory potency
  inhibitory potency towards human NEP (in words): weak inhibitory potency
Recombinant human AP-N
  inhibitory potency towards hAP-N as compared to Opiorphin-QRFSR native peptide (in words): equivalent inhibitory potency

## QRGPR (H-QRGPR-OH)
Human NEP
  inhibitory preference / dual inhibition, human NEP versus human AP-N (in words): inhibitory preference for human AP-N
  inhibitory potency towards hNEP as compared to Opiorphin-QRFSR native peptide (in words): weak inhibitory potency
  inhibitory potency towards human NEP (in words): weak inhibitory potency
Recombinant human AP-N
  inhibitory potency towards hAP-N as compared to Opiorphin-QRFSR native peptide (in words): equivalent inhibitory potency

## dR-dS-dF-dR-dQ ([dR][dS][dF][dR][dQ]) [NH2-dRdSdFdRdQ-COOH]
Human NEP
  inhibitory preference / dual inhibition, human NEP versus human AP-N (in words): preference for AP-N activity
  inhibitory potency towards human NEP (in words): did not display significant inhibitory activity
Recombinant human AP-N; screening, 50 μM final concentration
  inhibitory potency towards human AP-N (in words): did not display significant inhibitory activity

## N=C(N)NCCC[C@H](NC(=O)[C@H](CO)NC(=O)[C@H](Cc1ccccc1)NC(=O)[C@H](CCCNC(=N)N)NC(=O)[C@H](CCC(N)=O)NC(=O)CCCCCCCCCCCCNC(=O)[C@@H](N)Cc1ccc(O)cc1)C(=O)O [Y-[PE12]QRFSR, Y—(—HN—(CH2)12—CO—)-QRFSR]
Human NEP; listed as NH2-Y(PE12)QRFSR—COOH
  inhibitory preference / dual inhibition, human NEP versus human AP-N (in words): potent dual inhibitors
Human NEP; listed as NH2-Y—(C12-polyethylene)QRFSR—COOH
  inhibitory preference / dual inhibition, human NEP versus human AP-N (in words): inhibitory preference for human NEP endopeptidase activity
Human NEP; listed as Y—(C12-polyethylene)QRFSR
  inhibitory preference / dual inhibition, human NEP versus human AP-N (in words): inhibitory preference for human NEP endopeptidase activity

## QRFSK (H-QRFSK-OH)
Human NEP
  inhibitory potency towards hNEP as compared to Opiorphin-QRFSR native peptide (in words): equivalent inhibitory potency

## H-C[12Ado]QRFSR-OH [NH2-C-(C12-polyethylene)QRFSR-COOH]
[2]
  IC50, µM towards hAP-N (Ala-AMC cleavage): 0.8 µM

## H-C[Ahx]QRFSR-OH [NH2-C-(C6-polyethylene)QRFSR-COOH]
[2]
  IC50, µM towards hAP-N (Ala-AMC cleavage): 0.8 µM
[3]
  IC50, µM towards hNEP-Endopeptidase (Abz-dR-G-L-EDDnp cleavage): 40 µM

## H-QRFSK-OH [NH2-QRFSK-COOH]
[4]
  fold decrease in inhibitory potency compared to Opiorphin-QRFSR native peptide: 10 fold

## H-QKFSR-OH [NH2-QKFSR-COOH]
[4]
  fold decrease in inhibitory potency compared to Opiorphin-QRFSR native peptide: > 10 fold
